Source: article PMC2112927

Molecular target: rabbit skeletal muscle F-actin (rabbit), P68135
Experiment: nanosecond emission anisotropy
Settings: remark: other sources report otherwise

B1: IAENS-labeled Dictyostelium severin, P10733 1-362 (natural protein)
chain: MIKNRKLDITSTNVAGIGTDLDKKCRLDAASTEAQWKGVGQAPGLKIWRIENFKVVPVPESSYGKFYDGDSYIILHTFKEGNSLKHDIHFFLGTFTTQDEAGTAAYKTVELDDFLGGAPIQYRQCQSYESPSFLSLFPKYFILSGGVESGFNHVKPTEYKPRLLHISGDKNAKVAEVPLATSSLNSGDCFLLDAGLTIYQFNGSKSSPQEKNKAAEVARAIDAERKGLPKVEVFCETDSDIPAEFWKLLGGKGAIAAKHETAPTKSEKVLYKLSDASGSLKFSEVSRGKINKSSLKSEDVFIIDLGNEIYTWIGSKSSPNEKKTAFSHATQYLVNNKRCEYTPIVRVLENGTNQSFETLLSA
modifications: here or on the partner: one to two IAENS molecules attached to the protein (residues not stated)
For B1, the rotational correlation time was greater than 400 ns.
